Assay results as given in patent EP2654803B1, “RADIOLABELED HER2-BINDING PEPTIDE CONJUGATES” (General Electric Company, priority 2010, dated 2021).
Read-outs that look alike come from different tables or passages of the source.

Assays:
[1] = test system: SKOV3 tumors; design: species or system female CD-1 nude mice; conditions: mouse, in vivo
Protocol: In vivo studies were carried out with female CD-1 nude mice (Charles River Labs, Hopkinton, MA) with an age range between 6 and 15 weeks. Mice were housed in a ventilated rack with food and water ad libitum and a standard 12 hour day-night lighting cycle. For xenografts, animals were injected with 100 µl of cells in PBS. Cells were implanted subcutaneously in the right hindquarter. Implantation was performed under isoflurane anesthesia. For SKOV3, between 3 x 10^6 to 4 x 10^6 cells were implanted in each mouse. Under these conditions, useable tumors ([…]) were obtained in 3 to 4 weeks in greater than 80% of animals injected. Mice were given tail-vein injections of ∼1 ug of ^18F-labeled polypeptide (∼4 uCi/1 µg). Mice were placed in filter-paper lined cages until euthanasia. Three mice were euthanized at each timepoint and tissues of interest dissected and counted on a Perkin Elmer Wallac Wizard 1480 Gamma Counter. Data were collected for blood, kidney, liver, spleen, bone and injection site (tail). Urine from cages was pooled with the bladder and also counted. The remaining tissues were counted and the sum of all tissues plus urine for each animal was summed to provide the total injected dose. The percent injected dose for each organ was determined based on this total, and organs were weighed for determination of the percent injected dose per gram, (%ID/g). […]

[2] = test system: SKOV3 tumors; design: species or system female CD-1 nude mice; conditions: mouse, in vivo; remark: listed apart in the source
Protocol: Synthesis of the radiolabeled polypeptide was performed using a one-step kit formulation produced in house (Chelakit A+) containing a lyophilized mixture of stannous chloride as a reducing agent for technetium, methylene diphosphonic acid, p-aminobenzoate as a free-radical scavenger and sodium bicarbonate/sodium carbonate (pH 9.2) as buffer. In rapid succession, 20 µL of a 2 µg/µL solution of polypeptide in saline was added to the Chelakit, followed immediately by Na^99mTcO4 (0.8 mCi, 29.6 MBq) in 0.080 mL of saline (0.15M NaCl) obtained from Cardinal Health (Albany, NY). The mixture was agitated once and allowed to sit at ambient temperature for 20 min. Upon completion, the crude radiochemical yield was determined by ITLC (Table 6 below according to ITLC-SG, Biodex, 0.9% NaCl). […]
Mice were given tail-vein injections of ∼1 ug of ^99mTc-labeled polypeptides (∼10 µCi/1 µg). […] Three mice were euthanized at each timepoint and tissues of interest dissected and counted on a Perkin Elmer Wallac Wizard 1480 Gamma Counter. […] Urine from cages was pooled with the bladder and also counted. The remaining tissues were counted and the sum of all tissues plus urine for each animal was summed to provide the total injected dose. The % injected dose for each organ was determined based on this total, and organs were weighed for determination of the % injected dose per gram, (%ID/g). […]

| Substance | kidneys, ID/organ [1] | uptake in the liver [1] | kidneys, ID/organ [2] | uptake in the liver [2] |
| --- | --- | --- | --- | --- |
| Z02891 (SEQ. ID No. 2) 18F-fluorobenzyl oxime: Z02891-ONH2 (Mal-AO on cysteine) reacted with [18F]4-fluorobenzaldehyde | 0.95±0.07 ID/organ | ca. 1.8 %ID/organ | – | – |
| Z02891 (SEQ. ID No. 2) cPN216: Z02891 polypeptide conjugated with Mal-cPN216 via a terminal cysteine and labeled with 99mTc | – | – | 10.58 ± 2.96 ID/organ | 12 %ID/organ |
